Experiments:
[1] = molecular target: gC1qR, wild type, mature recombinant (receptor for the globular heads of C1q) (UniProt Q07021); experiment: SPR; gC1qR-WT or gC1qR-ΔΔ immobilised; two-fold dilution series of analyte injected; reference-corrected sensorgrams fit to kinetic models; apparent KD
[2] = molecular target: gC1qR-ΔΔ, gC1qR deletion mutant that removed the flexible, negatively charged loops (UniProt Q07021); experiment: not stated; not published; oligomeric state of gC1qR-ΔΔ in solution and in the crystal

Sequence of gC1qR-ΔΔ, gC1qR deletion mutant that removed the flexible, negatively charged loops (from UniProt Q07021 74-282) (receptor) (Q07021 74-282, stated change not applied): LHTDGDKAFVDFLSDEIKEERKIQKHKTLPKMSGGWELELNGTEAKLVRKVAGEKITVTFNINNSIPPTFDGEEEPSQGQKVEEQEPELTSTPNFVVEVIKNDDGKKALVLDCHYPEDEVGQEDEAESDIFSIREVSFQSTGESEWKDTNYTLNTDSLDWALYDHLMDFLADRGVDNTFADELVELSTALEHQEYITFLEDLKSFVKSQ
Sequence of gC1qR, wild type, mature recombinant (receptor for the globular heads of C1q) (Q07021 74-282): as the sequence (Q07021 74-282, stated change not applied) above

Substance	Kd [1] [nM]	stoichiometry N [2]
SARS-CoV-2 Membrane-Envelope fusion protein, recombinant	410	
gC1qR-ΔΔ, gC1qR deletion mutant that removed the flexible, negatively charged loops (from UniProt Q07021 74-282) (receptor)		3

Source: paper PMC8602850
